Reference: publication PMC6043480, “Molecular basis for the inhibition of the methyl-lysine binding function of 53BP1 by TIRR” (Nature Communications, 2018)
Ends that are not written are not given here. dimethyl = dimethyl-lysine

B1: Tudor interacting repair regulator (TIRR), residues 6-211 (domain or fragment, human, UniProt Q9BRJ7 6-211, looked up)
chain: VPELKQISRVEAMRLGPGWSHSCHAMLYAANPGQLFGRIPMRFSVLMQMRFDGLLGFPGGFVDRRFWSLEDGLNRVLGLGLGCLRLTEADYLSSHLTEGPHRVVAHLYARQLTLEQLHAVEISAVHSRDHGLEVLGLVRVPLYTQKDRVGGFPNFLSNAFVSTAKCQLLFALKVLNMMPEEKLVEALAAATEKQKKALEKLLPASS
notes: two TIRR molecules in the crystal; also called NUDT16L1; wild-type TIRR; source: E. coli BL21 (DE3), purified (Ni-chelating Sepharose, 3C protease, Superdex 200 Increase); not shown: His6, N-terminal, cleaved
B2: 53BP1 tandem Tudor domain (residues 1459-1634) (domain or fragment, human, UniProt Q12888 1459-1634, looked up)
chain: RSDSPEIPFQAAAGPSDGLDASSPGNSFVGLRVVAKWSSNGYFYSGKITRDVGAGKYKLLFDDGYECDVLGKDILLCDPIPLDTEVTALSEDEYFSAGVVKGHRKESGELYYSIEKEGQRKWYKRMAVILSLEQGNRLREQYGLGPYEAVTPLTKAADISLDNLVEGKRKRRSNVS
notes: also called 53BP1 TTD; TTD; source: E. coli BL21 (DE3), purified (Ni-chelating Sepharose, 3C protease, Source 15Q, Superdex 200 Increase); not shown: His6, N-terminal, cleaved
B3: H4K20me2 peptide (residues 12-25) (peptide, UniProt P62805 13-26, looked up)
peptide: KGGAKRHRK(dimethyl)VLRDN
notes: histone H4, residues 12-25, dimethylated on lysine 20; Peptide used in ITC

Legend:
[1] = biological target: the molecule itself; test: AUC; sedimentation velocity, 60,000 rpm, 20 °C, 10 mM Tris-HCl pH 8.0, 200 mM NaCl, 3 mM DTT; TIRR 53 μM, TTD 35 μM, mixture 20 μM TIRR with 20 μM TTD
[2] = biological target: B1; test: as above; settings: both partners purified
[3] = biological target: B1; test: ITC; 25 °C, PBS pH 7.0 with 140 mM NaCl; 150 μM 53BP1 TTD injected into 15 μM TIRR or its mutants; 80-100 μM TTD mutant into 8-10 μM TIRR; 750 μM H4K20me2 peptide into 37.5 μM TTD; settings: both partners purified
[4] = biological target: B2; test: as above; settings: both partners purified

## B1
[1]
  stoichiometry N: 2

## B2
[2]
  stoichiometry N: 1
[3]
  Kd: ~780 nM

## B3
[4]
  binding result: binds
